Results published in patent US20260209362A1 (VIB VZW, published 2026).

T1: human IL-12Rβ2 (human, UniProt Q99665 24-862)
T1 construct: Expressed on HEK293T cells transiently transfected with a pcDNA3 plasmid (Genscript clone OHu21785); also called hIL-12RB2; IL-12 receptor β2 subunit
T1 sequence: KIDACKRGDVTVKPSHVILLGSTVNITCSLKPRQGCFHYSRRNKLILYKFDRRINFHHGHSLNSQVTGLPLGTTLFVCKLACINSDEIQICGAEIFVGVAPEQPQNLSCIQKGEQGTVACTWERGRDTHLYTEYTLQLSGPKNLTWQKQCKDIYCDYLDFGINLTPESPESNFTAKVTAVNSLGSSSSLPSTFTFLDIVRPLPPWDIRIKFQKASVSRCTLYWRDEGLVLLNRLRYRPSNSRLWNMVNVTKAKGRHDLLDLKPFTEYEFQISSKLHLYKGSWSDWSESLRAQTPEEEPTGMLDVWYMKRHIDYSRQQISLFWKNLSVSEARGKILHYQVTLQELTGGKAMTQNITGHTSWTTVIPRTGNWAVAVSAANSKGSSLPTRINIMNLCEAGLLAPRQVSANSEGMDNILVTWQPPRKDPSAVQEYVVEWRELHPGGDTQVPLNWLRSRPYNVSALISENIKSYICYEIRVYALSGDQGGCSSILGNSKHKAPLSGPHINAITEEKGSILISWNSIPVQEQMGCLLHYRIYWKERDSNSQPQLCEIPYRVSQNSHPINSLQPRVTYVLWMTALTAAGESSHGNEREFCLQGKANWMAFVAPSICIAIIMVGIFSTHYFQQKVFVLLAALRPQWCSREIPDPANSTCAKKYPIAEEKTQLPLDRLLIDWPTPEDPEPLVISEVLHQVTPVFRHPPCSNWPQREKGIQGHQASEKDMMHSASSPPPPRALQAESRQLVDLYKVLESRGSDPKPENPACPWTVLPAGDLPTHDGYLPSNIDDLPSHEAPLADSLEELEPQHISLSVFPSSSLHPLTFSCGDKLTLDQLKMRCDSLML


Molecular target: T1, human IL-12Rβ2
Experiment: flow cytometry, P.E. on transfected HEK293T cells

Row | Binder | % cells bound [%] | dMFI
1 | anti-IL-12Rβ2 VHH clone 3CRH73 (VHH, not shown: small tags and cut ends, periplasmic extract) VHH: QVQLQESGGGLVRAGGSLRLSCAASGHTFSNYVMGWFRQAPGKEREFVAAISWGGSNTYYADSVKGRFTISRDNAKNTVYLQMNSLKVEDTAVYYCAADRRFEGWNYYSMDYWGKGTQVTVSS | 41.2 | 918
2 | anti-IL-12Rβ2 VHH clone 2CRH62 (VHH, not shown: small tags and cut ends, periplasmic extract) VHH: QVQLQESGGGLVQPGGSLRLSCVESGRTFTVYDMGWFRQAPGKEREIVAAISADGATSIYQDSVKGRFTISRDNDAKNTVYLQMNSLKPEDTAVYYCAAGRSLIYNLYRANNTDYWGQGTQVTVSS | 41.9 | 891
3 | anti-IL-12Rβ2 VHH clone 3CAH32 (VHH, not shown: small tags and cut ends, periplasmic extract; also called 20357) VHH: QVQLQESGGGLVQPGGSLRLSCAASGSILRINLMGWYRQVPGKQRELVAEMSTGGSTTYVDSVKGRFTISRDNAKNTVYLQMNSLKPEDTAVYYCNAKAWQLGRLENDDWGQGTQVTVSS | 40 | 742
4 | anti-IL-12Rβ2 VHH clone 3CAHS102 (VHH, not shown: small tags and cut ends, periplasmic extract) VHH: QVQLQESGGGLVQPGGSLRLSCAASGSILRINLMGWYRQVPGKQRELVAEMSTGGSTTYVDSVEGRFTISRDNAKNTVYLQMNSLKPEDTAVYYCNAKAWQLGRLENDDWGQGTQVTVSS | 44.7 | 1090
5 | anti-IL-12Rβ2 VHH clone 2CRH41 (VHH, not shown: small tags and cut ends, periplasmic extract; also called 20365) VHH: QVQLQESGGGLVQPGGSLRLSCTASGFAFSSYWMYWVRQSPEKGFEWVSVVDTDGGITYYADSVKGRFTISRDNAKNTLYLQMNSLKPQDTALYYCARDRTTLEYTRTYYRTGQGTQVTVSS | 31.6 | 583
6 | anti-IL-12Rβ2 VHH clone 3CRHS99 (VHH, not shown: small tags and cut ends, periplasmic extract) VHH: QVQLQESGGGLVQPGGSLRLSCKASGFTFSTYAMSWVRQAPGKGLEWVSAINSGGLSTDYADSVEGRFTISRDDAKNMLFLQMNSLKAEDTARYYCAKYEDCSDYMCHRDRAGYWGQGTQVTVSS | 42.1 | 980
7 | anti-IL-12Rβ2 VHH clone 3CAHS79 (VHH, not shown: small tags and cut ends, periplasmic extract) VHH: QVQLQESGGGLVQPGGSLRLTCVASGFPFSTHAMSWVRQPPGKGREWISAINSGGDSTDYADSVMGRFTISRDNAKNTVYLQMNSLKSEDTAVYYCAKYEDCSDYDCSSRASWGQGTQVTVSS | 46.1 | 1230
8 | anti-IL-12Rβ2 VHH clone 3CAHS171 (VHH, not shown: small tags and cut ends, periplasmic extract) VHH: QVQLQESGGGLVQPGGSLRLTCVASGFPFSTHAMSWVRQPPGKGREWISAINSGGDSTDYADSVMGRFTISRDNAKNTVYLQMNSLKSEDTAAYYCAKYEDCSDYDCSSRASWGQGTQVTVSS | 47.5 | 1280
9 | anti-IL-12Rβ2 VHH clone 2CRH82 (VHH, not shown: small tags and cut ends, periplasmic extract) VHH: QVQLQESGGGLVQAGGSLRLSCAASARTESMYAMAWFRQAPGKEREIVAGIIQSGGTTYISDYMKGRFSIDRGNAENTVYLQMDSLKPEDTAVYSCAAKVSSGTPSDIQISQSRWYDHWGQGTQVTVSS | 40.1 | 844
10 | anti-IL-12Rβ2 VHH clone 3CAHS41 (VHH, not shown: small tags and cut ends, periplasmic extract) VHH: QVQLQESGGGLVQAGDSLRLSCAASGRTFDTYIVGWFRQAPGKEREFVSALSWSDDTTIRDDSLRGRFTISRDNAKNTVYLLMNSLKPEDTAVYYCAAKAKPPAATWSSYRNREWYDYWGQGTQVTVSS | 43.3 | 1070
11 | anti-IL-12Rβ2 VHH clone 3CRH25 (VHH, not shown: small tags and cut ends, periplasmic extract) VHH: QVQLQESGGGLVQAGDSLRLSCTASGHTFSRYTTIGWFRQAPGKDREFVAAIRWSGDITDYADAVKGRFTISRDNVKNTVYLQMNSLNPEDTAVYYCARGYSEYGVLSRNRGLYAYWGQGTQVTVSS | 34.8 | 620
12 | anti-IL-12Rβ2 VHH clone 3CRH28 (VHH, not shown: small tags and cut ends, periplasmic extract) VHH: QVQLQESGGGLVQPGGSLTLSCAASGFTFSSNAMSWVRQAPGKGLEWVSSISSGGGTTYYTDSVKGRFTTARDNAKNTLYLRMNSLKPEDTAVYYCSKSSTGSGSRGQGTQVTVSS | 44.6 | 1110
13 | anti-IL-12Rβ2 VHH clone 3CRHS31 (VHH, not shown: small tags and cut ends, periplasmic extract) VHH: QVQLQESGGGLVQAGGSLRLSCAASGFTFSTYAMSWVRQAPGKGLEWVSSVNSGGLSTDYADSVEGRFTISRDDAKNMLFLQMNSLKPEDTARYYCAKYEDCSDYVCDRAGYWGQGTQVTVSS | 42.8 | 977
14 | anti-IL-12Rβ2 VHH clone 3CRHS51 (VHH, not shown: small tags and cut ends, periplasmic extract) VHH: QVQLQESGGGLVQPGGSLRLSCAASGFTFSTYAMSWVRQAPGKGLEWVSAVNSGGLSTDYADSVEGRFTISRDDAKNMLFLQMNRLKPEDTARYYCAKYEDCSDYVCDRAGYWGQGTQVTVSS | 46 | 1240

Other lines, results leading:

Row | % cells bound [%] | dMFI | Binder
15 | 0.15 | 37 | anti-IL-12Rβ2 VHH clone 3CAH28 (VHH, not shown: small tags and cut ends, periplasmic extract; also called 20356) VHH: QVQLQESGGGLVQSGASLRLSCAASERTLSGYAMGWFRQAPGKEREFVAAIRWSGSSTYYAESVEGRFTISRDNAKNTVYLQMNILKPEDTAVYYCAAGSDYADEYDYWGQGTQVTVSS
16 | 43.7 | 1150 | anti-IL-12Rβ2 VHH clone 3CRHS163 (VHH, not shown: small tags and cut ends, periplasmic extract) VHH: QVQLQESGGGLVQPGGSLRLSCTASGFAFSTYWMYWIRQSPEKGFEWVSVVNTGGDITYYADSVKGRFTISRDNAKNTLYLQMNSLKPEDTALYYCARDRTTMSYTRTYYRGGQGTQVTVSS
17 | 43.3 | 1110 | anti-IL-12Rβ2 VHH clone 3CRHS106 (VHH, not shown: small tags and cut ends, periplasmic extract) VHH: QVQLQESGGGLVQPGGSLRLSCKASGFTFSTYAMSWVRQAPGKGLEWVSAVNSGGLSTDYADSVEGRFTISRDDAKNMLFLQMNSLKPEDTARYYCAKYEDCSDYMCHRDRAGYWGQGTQVTVSS
18 | 7.11 | 443 | anti-IL-12Rβ2 VHH clone 3CRHS67 (VHH, not shown: small tags and cut ends, periplasmic extract) VHH: QVQLQESGGGLVQAGGSLTLSCVSSQTLVGIEAMGWYRQAPGKQRELVALITLNGGTFYADSVKGRFTISRDVAEHMLYLEMNSLNPEDTAVYFCVAGVESDNEEPTYWGQGTQVTVSS
19 | 1.51 | 222 | anti-IL-12Rβ2 VHH clone 3CRHS156 (VHH, not shown: small tags and cut ends, periplasmic extract) VHH: QVQLQESGGGLVQSGGSLRLSCVSSQTLVGIEAMGWYRQAPGKQRELVALITLNGGTFYADSVKGRFAISRDVAEHMLYLEMNSLNPEDTAVYFCVAGVESDNEEPTYWGQGTQVTVSS
20 | 2.11 | 266 | anti-IL-12Rβ2 VHH clone 3CRHS166 (VHH, not shown: small tags and cut ends, periplasmic extract) VHH: QVQLQESGGGLVQSGGSLRLSCVSSQTLVGIEAMGWYRQAPGKQRELVALITLNGGTFYADSVKGRFTISRDVAEHMLYLEMNSLNPEDTAVYFCVAGVESDNEEPTYWGQGTQVTVSS
21 | 28.3 | 602 | anti-IL-12Rβ2 VHH clone 3CRH83 (VHH, not shown: small tags and cut ends, periplasmic extract) VHH: QVQLQESGGGLVQAGGSLKLSCAASGNTFSINAMAWYRQAPGQELELVAAISDVGNTIYADSMKGRFTISRGNADNTVYLQMNSLKPEDTATYYCNAGTFYTSPGDSYYRGYDFWGQGTQVTVSS
22 | 36.6 | 668 | anti-IL-12Rβ2 VHH clone 2CRH76 (VHH, not shown: small tags and cut ends, periplasmic extract) VHH: QVQLQESGGGLVQTGGSLRLSCVASGRTFNWSAMGWFRQPPGKEREVVATISGGGTSAYYADSVKGRFTISRDGAKNTLYLQMNSLKPEDTAVYYCAADRVDYRMTLTQNGNHYWGQGTQVTVSS
23 | 42.6 | 1010 | anti-IL-12Rβ2 VHH clone 3CAHS180 (VHH, not shown: small tags and cut ends, periplasmic extract) VHH: QVQLQESGGGLVQAGDSLRLSCAASGRTFDTYIVGWFRQAPGKEREFVSALSWSDDTTIRDDSLRGRFTLSRDNAKNTVYLLMNSLKPEDTAVYYCAAKAKPPAATWSSYRNREWYDYWGQGTQVTVSS
24 | 31 | 645 | anti-IL-12Rβ2 VHH clone 3CRH64 (VHH, not shown: small tags and cut ends, periplasmic extract) VHH: QVQLQESGGGLVQAGGSLRLSCTASGHTFSRYTTIGWFRQAPGKDREFVAAIRWSGDITDYADAVKGRFTISRDNVKNTVYLQTNSLNPEDTAVYYCARGYSEYGVLSRNRGLYAYWGQGTQVTVSS
25 | 37.7 | 867 | anti-IL-12Rβ2 VHH clone 3CRHS77 (VHH, not shown: small tags and cut ends, periplasmic extract) VHH: QVQLQESGGGLVQAGGSLRLSCTASGHTFSSYTTIGWFRQAPGKEREFVAAIGWSGDITDYADAVKGRFTISRHNVENTVYLQMNSLNPEDTAVYYCARGYSEYGVLSRNRGLYAYWGQGTQVTVSS
26 | 46.1 | 1170 | anti-IL-12Rβ2 VHH clone 3CRH59 (VHH, not shown: small tags and cut ends, periplasmic extract) VHH: QVQLQESGGGLVQPGGSLRLSCTASGFAFSSYWMYWVRQTPGKGFEWVSVVNPGGEITYYGDSMEDRFTISRDNAKNTLYLQMNSLKPEDTGLYYCARDRTTIDYTRTYYRGGQGTQVTVSS
27 | 0.1 | 18 | anti-IL-12Rβ2 VHH clone 3CAH60 (VHH, not shown: small tags and cut ends, periplasmic extract; also called 20361) VHH: QVQLQESGGGLVQPGGSLILSCVASGFAMDYLTMGWSREAPRNEREDISCIDTSGRSTDYLDSVKGRFTISRDNAKNTLYLHMNDLKPEDTAEYYCLASTSYCGAGYEYRGQGTQVTVSS
